Measured values: patent US7998460B2, “Prevention of deficits in neurogenesis with anti-inflammatory agents” (The Board of Trustees of the Leland Stanford Junior …, priority 2003, dated 2011)

Columns and labels:
Type in all cases: cell-based, rat
[1] = test system: Hes1 mRNA; assay: Real-time quantitative RT-PCR of Hes1 in neural precursors; details: 60 hours exposure
Excerpt: Signaling via gp130, the co-receptor of the IL-6 receptor, stimulates the Notch1 pathway, resulting in an increase in expression of the mammalian homolog of hairy-enhancer-of-split, Hes 1, transcription factor and antagonism of pro-neural basic helix-loop-helix (bHLH) genes and hippocampal neurogenesis during development. To determine if IL-6 treatment of adult stem cells leads to an increase in Hes 1 consistent with the reduction in neuronal cell fate, “real-time” quantitative RT-PCR was performed on total RNA extracted from neural precursors exposed for 60 hours to activated microglial CM or IL-6. Both CM and IL-6 caused a dramatic increase in Hes1 mRNA expression (3.2- and 7.7-fold increase respectively, relative to control).
Total RNA isolation, cDNA synthesis, and SYBR Green real-time quantitative RT-PCR. […] Quantitative SYBR Green real time PCR was carried out as described previously. […] Quantitative RT-PCR was performed on ABI 5700 PCR instrument (PerkinElmer Life Sciences) by using 3-stage program parameters provided by the manufacturer as follows; 2 min at 50° C., 10 min at 95° C., and then 40 cycles of 15 s at 95° C. and 1 min at 60° C. […] Each sample was tested in five copies with quantitative PCR, and samples obtained from three independent experiments were used to calculate the means and standard deviations. […]

[2] = test system: adult hippocampus-derived neural precursor cells; assay: Proliferation (BrdU) and survival (TUNEL) assays in differentiating neural precursor cultures
Method: Proliferation and survival assays BrdU was added to the culture media from hour 24 to hour 48 of the 60 hour paradigm. Immunocytochemistry and confocal microscopy was then used to determine the fraction of GFP+ cells that labeled with BrdU, TUNEL, or type III β-tubulin or doublecortin. TUNEL staining was performed with Apoptag Red (Serologicals, Norcross, Ga.). The fraction of total (DAPI+) nuclei that were TUNEL+ were determined, as well as the fraction of doublecortin positive cells that were also TUNEL+.

[3] = test system: adult hippocampus-derived neural precursor cells; assay: In vitro neuronal differentiation (doublecortin) of hippocampal neural progenitor cells, 60 hours; details: 60 hours
Excerpt: Neuroinflammation could inhibit neurogenesis by a variety of mechanisms, including stimulation of the HPA axis with subsequent elevation of gluccocorticoids, alterations in the relationships between progenitor cells and cells of the neuro-vasculature, or direct effects of activated microglia on the precursor cells. To determine the extent to which microglial activation might directly affect neural stem/progenitor cells, microglia were stimulated in vitro with LPS. LPS is a potent activator of microglia and up-regulates the elaboration of pro-inflammatory cytokines, including IL-6 and TNF-α. LPS-stimulated or resting microglia were then co-cultured with normal neural stem cells from the hippocampus under conditions that typically stimulate the differentiation of 30 to 40% of the progenitor cells into immature Dcx-expressing neurons (normalized to a value of 1 in FIG. 2A, control). Neurogenesis in the presence of microglia was assessed as the increase or decrease in Dcx-expressing cells relative to control. Co-culture with activated, but not resting, microglia decreased in vitro neurogenesis to approximately half of control levels (FIG. 2A). LPS added directly to precursor cells had no effect on neurogenesis.
To determine if this effect was due to soluble factors or due to cell-cell contact, hippocampal precursor cells were differentiated in the presence of media pre-conditioned by resting or activated microglia.
Activated microglia produce the potent pro-inflammatory cytokines interleukin-1β (IL-1β), tumor necrosis factor-α (TNF-α), interferon-γ (INF-γ) and interleukin-6 (IL-6). Progenitor cells were allowed to differentiate in the presence of each cytokine and the relative expression of Dcx was scored after 60 hours. […] Addition of neutralizing anti-IL-6 antibody to CM from activated microglia was able to fully restore in vitro neurogenesis (FIG. 2A). This implicated IL-6 as a key inhibitor of neurogenesis in microglial CM. […] In contrast to neurogenesis, gliogenesis was unaffected by IL-6 exposure as indicated by the lack of change in the number of cells expressing the astrocyte (glial fibrillary acidic protein, GFAP) or early oligodendrocyte (NG2) markers relative to control cultures (FIG. 2E). The hippocampal precursors used in this study do express the IL-6 receptor, as confirmed by RT-PCR (FIG. 5).
Progenitor Cell Culture Adult hippocampus-derived neural precursor cells were isolated from adult rat hippocampus and cultured as previously described. Briefly, adult female Fisher-344 rats were deeply anesthetized with sodium pentobarbital and were dissected immediately. Hippocampi were enzymatically dissociated with papain (2.5 U/ml; Worthington, Freehold, N.J.)-dispase II (1 U/ml; Boehringer Mannheim, Indianapolis, Ind.)-DNase I (250 U/ml, Worthington) solution. Digested tissue was then washed with DMEM-10% fetal calf serum (FCS) and subsequently mixed with PBS-equilibrated Percoll solution to a final concentration of 35% Percoll. The Percoll solution was made by mixing nine parts of Percoll (Amersham Pharmacia Biotech, Uppsala, Sweden) with one part of 10× PBS. The cell suspension was then fractionated by centrifugation for 10 min at 1000×gravity. Floating myelin and tissue debris were discarded and the cell pellet re-suspended in 65% Percoll solution and fractionated again by centrifugation for 10 min at 1000×g. The floating neural precursors were collected, washed free of Percoll, and plated onto poly-L-ornithine/laminin-coated dishes in DMEM/F12 (1:1) containing 10% FCS medium for 24 hrs; then medium was replaced with serum-free growth medium consisting of DMEM/F12 (1:1) supplemented with N2 supplement (Life Technologies, Gaithersburg, Md.) and 20 ng/ml of human recombinant FGF-2 (Peprotech, Rocky Hill, N.J.). Cell lines were labeled via infection with replication deficient GFP-expressing recombinant retrovirus LZRS-CAMut4GFP. […]

B1: IL-6: recombinant rat interleukin-6 (protein)
chain: FPTSQVRRGDFTEDTTPNRPVYTTSQVGGLITHVLWEIVEMRKELCNGNSDCMNNDDALAENNLKLPEIQRNDGCYQTGYNQEICLLKISSGLLEYHSYLEYMKNNLKDNKKDKARVLQRDTETLIHIFNQEVKDLHKIVLPTPISNALLTDKLESQKEWLRTKTIQFILKSLEEFLKVTLRSTRQT
increase in Hes1 mRNA expression relative to control [1]: 7.7 fold
fraction of TUNEL-positive apoptotic cells ([2]; mean+/-s.e.m., differentiating culture, IL-6 50 ng/ml): 0.068+/−0.005
fraction of TUNEL-positive cells that co-labeled with doublecortin ([2]; mean+/-sem): 0.83+/−0.02
mitotic index (fraction of cells labeled with BrdU in 24 hours) ([2]; stem cell cultures): 95+/−1.7%
BrdU labeling within the neuronal progeny ([2]; subset of spontaneously forming immature neurons): 82+/−1.6%
gliogenesis (cells expressing GFAP or NG2 relative to control) ([3]; IL-6 50 ng/ml): unaffected
decrease of in vitro neurogenesis (relative expression of Dcx) ([3]; recombinant IL-6 50 ng/ml or TNF-α 20 ng/ml): approximately 50%
